# Measured values: PMC12675262 (Journal of Experimental Botany, 2025)
# Molecular target: the molecule itself
# Test: SEC
protein,measurement,value
"Synechocystis sp. PCC 6803 fructose-1,6-bisphosphatase (FBPase; slr0952) (enzyme, UniProt P74324 1-347, looked up) MTVSEIHIPNSLLDRDCTTLSRHVLQQLNSFGADAQDLSAIMNRIALAGKLIARRLSRAGLMADVLGFTGETNVQGESVKKMDVFANDVFISVFKQSGLVCRLASEEMEKPYYIPENCPIGRYTLLYDPIDGSSNVDINLNVGSIFAIRQQEGDDLDGSASDLLANGDKQIAAGYILYGPSTILVYSLGSGVHSFILDPSLGEFILAQENIRIPNHGPIYSTNEGNFWQWDEALRDYTRYVHRHEGYTARYSGALVGDIHRILMQGGVFLYPGTEKNPDGKLRLLYETAPLAFLVEQAGGRASDGQKRLLDLIPSKLHQRTPAIIGSAEDVKLVESFISDHKQRQGN",stoichiometry N,4
